Source: US20230002466A1

Target: human IL2Rα (human) (UniProt P01589)
Assay: SPR, IL2Rα captured on Protein A chip, IL2 at 100 nM

Sequence of human IL2Rα (human) (P01589 22-213 limits assumed): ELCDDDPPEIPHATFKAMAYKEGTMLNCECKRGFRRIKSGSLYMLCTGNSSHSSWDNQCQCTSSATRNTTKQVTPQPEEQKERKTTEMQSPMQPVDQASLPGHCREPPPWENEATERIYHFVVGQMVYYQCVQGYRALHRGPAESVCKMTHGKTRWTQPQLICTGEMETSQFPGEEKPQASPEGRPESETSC

RU (at 100 nM): 7.4 RU | Relevant binding to WT IL2 (%): 5.21%
B1: EP225 (ligand)
chain: APTSSSTKKTQLQLEHLLLDLQMILNGINNYKNPKLTRMLTAKFYMPKKATELKHLQCLEEELKPLEEVLNLAQSKNFHLTARDAVDNMRVIIQELKGSETTFMCEYADETATIVEFLNRWITFSQSIISTLTGSHHHHHH
